Molecular target: GvpA of Anabaena flos-aquae gas vesicles (GvpA-based shell of urea-stripped Ana GVs) (Anabaena flos-aquae) (UniProt P10397)
Test: SDS-PAGE of ST-Ana GVs against a standard curve of GvpC-ST

Sequence of UniProt P10397 (P10397 2-71): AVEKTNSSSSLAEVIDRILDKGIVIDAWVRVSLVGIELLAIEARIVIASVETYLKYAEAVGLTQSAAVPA

SpyTag functionalities per GV: 1000 per GV
B1: GvpC-SpyTag (GvpC comprising a SpyTag fused to the C-terminus, and a His-tag fused to the C-terminus of the SpyTag) (protein)
chain: MGISLMAKIRQEHQSIAEKVAELSLETREFLSVTTAKRQEQAEKQAQELQAFYKDLQETSQQFLSETAQARIAQAEKQAQELLAFHKELQETSQQFLSATAQARIAQAEKQAQELLAFYQEVRETSQQFLSATAQARIAQAEKQAQELLAFHKELQETSQQFLSATADARTAQAKEQKESLLKFRQDLFVSIFGSGAHIVMVDAYKPTKGSGLEHHHHHH
